Measurements: US20120301404A1

Experiments:
[1] = target: PIF receptor (mouse; C2C12 membranes and mouse tissue plasma membranes) (mouse (C2C12 myotubes)); assay: cell-based or functional assay
[2] = target: PIF receptor (pig sarcolemma membranes) (pig); assay: Scatchard analysis of [35S]PIF binding to pig sarcolemma membranes, first site
[3] = target: PIF receptor (pig sarcolemma membranes) (pig); assay: Scatchard analysis of [35S]PIF binding to pig sarcolemma membranes, second site
[4] = target: PIF receptor (mouse; C2C12 membranes and mouse tissue plasma membranes) (mouse (C2C12 myotubes)); assay: Scatchard analysis of [35S]PIF binding to mouse heart plasma membranes, first site
[5] = target: PIF receptor (mouse; C2C12 membranes and mouse tissue plasma membranes) (mouse (C2C12 myotubes)); assay: Scatchard analysis of [35S]PIF binding to mouse liver plasma membranes, first site
[6] = target: PIF receptor (mouse; C2C12 membranes and mouse tissue plasma membranes) (mouse (C2C12 myotubes)); assay: Scatchard analysis of [35S]PIF binding to mouse heart plasma membranes, second site
[7] = target: PIF receptor (mouse; C2C12 membranes and mouse tissue plasma membranes) (mouse (C2C12 myotubes)); assay: Scatchard analysis of [35S]PIF binding to mouse liver plasma membranes, second site
[8] = target: PIF receptor (human muscle cell line Hs94MU membranes) (human); assay: Scatchard analysis of [35S]PIF binding to Hs94MU human muscle cell membranes, first site
[9] = target: PIF receptor (human muscle cell line Hs94MU membranes) (human); assay: Scatchard analysis of [35S]PIF binding to Hs94MU human muscle cell membranes, second site
[10] = target: PIF receptor (mouse; C2C12 membranes and mouse tissue plasma membranes) (mouse (C2C12 myotubes)); assay: Scatchard analysis of [35S]PIF binding to mouse soleus muscle plasma membranes, first site
[11] = target: PIF receptor (mouse; C2C12 membranes and mouse tissue plasma membranes) (mouse (C2C12 myotubes)); assay: Scatchard analysis of [35S]PIF binding to mouse soleus muscle plasma membranes, second site
[12] = target: PIF receptor (mouse; C2C12 membranes and mouse tissue plasma membranes) (mouse (C2C12 myotubes)); assay: Scatchard analysis of [35S]PIF binding to mouse gastrocnemius muscle sarcolemma membranes, first site
[13] = target: PIF receptor (mouse; C2C12 membranes and mouse tissue plasma membranes) (mouse (C2C12 myotubes)); assay: Scatchard analysis of [35S]PIF binding to C2C12 membranes, second site (column headed Kaff2 x 10^-9 M)
[14] = target: PIF receptor (mouse; C2C12 membranes and mouse tissue plasma membranes) (mouse (C2C12 myotubes)); assay: Scatchard analysis of [35S]PIF binding to mouse gastrocnemius muscle sarcolemma membranes, second site
[15] = target: PIF receptor (mouse; C2C12 membranes and mouse tissue plasma membranes) (mouse (C2C12 myotubes)); assay: comparison of the affinity of PIF for muscle cell binding sites with its affinity for the MAC16 monoclonal antibody
[16] = target: PIF receptor (mouse; C2C12 membranes and mouse tissue plasma membranes) (mouse (C2C12 myotubes)); assay: Scatchard analysis of [35S]PIF binding to C2C12 membranes, first site (column headed Kaff x 10^-10 M; text calls it Kd)
[17] = target: Proteolysis Inducing Factor (PIF) (mouse (MAC16 cells)); assay: cell-based or functional assay

Molecule	increased rate of protein degradation in C2C12 myoblasts over 24 and 48 h, effective concentrations [1]	rate of protein degradation (release of L-[2,6-3H]phenylalanine) in C2C12 myoblasts, concentration of maximal effect at 6 h [1]	Kd [2]	Kd [3]	Kd [4]	Kd [5]	Kd [6]	Kd [7]	Kd [8]	Kd [9]	Kd [10]	Kd [11]	Kd [12]	Kd [13]	Kd [14]	fold greater affinity than binding to a monoclonal antibody [15]	Kd [16]	PIF-induced increase in chymotrypsin-like enzyme activity [17]	PIF-induced protein degradation in murine myotubes [17]
Proteolysis Inducing Factor (PIF) (ligand)	0.14 to 1.4 nM	0.98 to 1.4 nM	0.47 nM	8.2 nM	0.3 nM	0.69 nM	2.3 nM	0.2 nM	0.11 nM	1.7 nM	0.01 nM	0.12 nM	0.52 nM	1.2 nM	0.1 nM	10 to 100 fold	0.14 nM	–	–
DINGGGATLPQPLYQTAAVLTAGFA [N-terminal synthetic peptide of the PIF receptor (peptide of SEQ ID No. 1)]	–	–	–	–	–	–	–	–	–	–	–	–	–	–	–	–	–	10 µM	10 µM
